Entries after “also recorded” stand apart in the source; their conditions may differ.
System: human lung cancer cell line NCI-H460
Assay: TUNEL staining of apoptosis
Type: cell-based
Conditions: 15 ng/ml, 4 h
Method: FIG. 4. TUNEL assay of apoptosis of human lung cancer cell line NCI-H460 induced by NCPT-1.M1. The NCI-H460 cells were incubated with NCPT-1.M1 (15 ng/ml) for 4 h and then prepared as smears before TUNEL staining. […] In control group, nucleus remains intact, and no characteristic brown stained chromatins are seen (A).
During the process of apoptosis, the genomic DNA can be broken into double-strand, low molecular weight DNA fragments and high molecular weight single-stranded DNA fragments with broken ends (gaps), and these DNA strand gaps can be identified using enzyme-labeled nucleotide 3′-terminal labeling method. In the case of catalytic action of terminal deoxynucleotidyl transferase (TdT), FITC-labeled nucleotide can be incoporated to the free 3′ end nucleotide with template-independent manner, and thereby making the gap of the DNA strand labeled (TUNEL method). The labeling FITC can be recognized by horseradish peroxidase (POD) conjuncated sheep-derived Fab fragment. Upon development with DAB (3,3-diaminobenzidine), the cells stained as brown, which were apoptotic cells, were examined under light microscopy. TUNEL technique is a common method to detect apoptosis. The apoptosis upon incubation of NCI-H460 cell with NCPT-1.M1 was examined using TUNEL technique. […]

B1: NCPT-1.M1: MG+His6+NCPT-1 fusion protein, SEQ ID NO: 5 (protein)
chain: MGHHHHHHTLSSPNSKNEKALGRKINSWESSRSGHSFLSNLHLRNGELVIHEKGFYYIYSQTYFRFQEEIKENTKNDKQMVQYIYKYTSYPDPILLMKSARNSCWSKDAEYGLYSIYQGGIFELKENDRIFVSVTNEHLIDMDHEASFFGAFLVGGGGGGRVAAHITGTRGRSNT
modifications: NCPT-1.M1 polypeptide sequence
  apoptosis by TUNEL staining: a large number of NCI-H460 cells experience apoptosis; also recorded: Almost all of the tumor cells exhibit characteristic of apoptosis

— patent publication US9289468B2, “Fusion protein comprising circularly permuted form of trail/Apo2L, coding gene and use thereof” (Beijing Sunbio Biotech Co. Ltd., priority 2011, dated 2016)
